Measured values published in patent US20230099801A1, “RESTORATION OF T CELL ACTIVITY VIA THE CD39/CD73 AXIS” (INNATE PHARMA, priority 2017, published 2023).
Entries after “also recorded” stand apart in the source; their conditions may differ.

Legend:
[1] = target: T1, soluble recombinant human CD39 protein (Homo sapiens, UniProt P49961); assay: Inhibition of the enzymatic (ATPase) activity of soluble CD39, Cell Titer Glo; format: biochemical
T1 construct: made in house; host or cells: CHO cells
T1 sequence (P49961 with tags, fused parts or gaps): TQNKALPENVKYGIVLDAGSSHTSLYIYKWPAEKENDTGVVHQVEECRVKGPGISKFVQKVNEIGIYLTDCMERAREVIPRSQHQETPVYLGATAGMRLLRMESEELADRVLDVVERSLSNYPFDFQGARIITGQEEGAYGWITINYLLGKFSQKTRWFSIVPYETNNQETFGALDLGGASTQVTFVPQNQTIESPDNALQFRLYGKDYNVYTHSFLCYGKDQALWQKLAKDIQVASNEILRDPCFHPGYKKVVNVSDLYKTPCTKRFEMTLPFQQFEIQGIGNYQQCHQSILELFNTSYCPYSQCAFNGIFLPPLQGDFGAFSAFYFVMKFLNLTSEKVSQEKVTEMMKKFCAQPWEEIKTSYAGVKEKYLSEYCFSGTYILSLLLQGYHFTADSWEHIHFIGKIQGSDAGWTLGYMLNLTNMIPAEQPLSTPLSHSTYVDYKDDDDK
Protocol: The ability of an antibody to inhibit soluble recombinant human CD39 protein can be tested by detecting ATP after incubating test antibody with soluble CD39 protein (e.g., the CD39 protein having the amino acid sequence of SEQ ID NO: 5, as produced in Example 1, optionally further comprising a purification tag or other functional or non-functional non-CD39-derived amino acid sequence). See, e.g., Example 1. Briefly, ATP can be quantified using the Cell Titer Glo™ (Promega), in an assay in which dose ranges of test antibody are incubated with soluble recombinant human CD39 protein described in Example 1, for 1 hour at 37° C. 20 μM ATP are added to the plates for 30 additional minutes at 37° C. before addition of CTG reagent. Emitted light is quantified using an Enspire™ luminometer after a short incubation period of 5 min in the dark.
The inhibition by antibodies of the enzymatic activity of soluble CD39 protein produced was evaluated using Cell Titer Glo™ (Promega, reference G7571) that allows assessment of ATP hydrolysis through use of a reagent that generates a luminescent signal proportional to the amount of ATP present. In this way, inhibition of the soluble-CD39-mediated ATP hydrolysis can be assessed. Briefly, dose ranges of anti-CD39 antibodies from 100 μg/ml to 6×10^−3 μg/ml were incubated with 400 ng/ml of soluble recombinant human CD39 protein having the amino acid sequence described in the Methods section (SEQ ID NO: 54), for 1h at 37° C. 20 μM ATP was added to the plates for 30 additional minutes at 37° C. before addition of CTG (Cell Titer Glo) reagent. Emitted light was quantified using an Enspire™ luminometer after a short incubation period of 5 min in the dark. Anti-CD39 antibody efficacy was determined by comparing emitted light in presence of antibody with ATP alone (maximal light emission) and ATP together with soluble CD39 protein (minimal light emission).

[2] = target: T2, CHO cells expressing murine CD39 (CHO-moCD39) (Mus musculus, UniProt P55772); assay: Antibody titration on CHO-moCD39 cells by flow cytometry; format: binding
T2 construct: expressed in transfected cells; host or cells: CHO cells
T2 sequence (P55772 1-510): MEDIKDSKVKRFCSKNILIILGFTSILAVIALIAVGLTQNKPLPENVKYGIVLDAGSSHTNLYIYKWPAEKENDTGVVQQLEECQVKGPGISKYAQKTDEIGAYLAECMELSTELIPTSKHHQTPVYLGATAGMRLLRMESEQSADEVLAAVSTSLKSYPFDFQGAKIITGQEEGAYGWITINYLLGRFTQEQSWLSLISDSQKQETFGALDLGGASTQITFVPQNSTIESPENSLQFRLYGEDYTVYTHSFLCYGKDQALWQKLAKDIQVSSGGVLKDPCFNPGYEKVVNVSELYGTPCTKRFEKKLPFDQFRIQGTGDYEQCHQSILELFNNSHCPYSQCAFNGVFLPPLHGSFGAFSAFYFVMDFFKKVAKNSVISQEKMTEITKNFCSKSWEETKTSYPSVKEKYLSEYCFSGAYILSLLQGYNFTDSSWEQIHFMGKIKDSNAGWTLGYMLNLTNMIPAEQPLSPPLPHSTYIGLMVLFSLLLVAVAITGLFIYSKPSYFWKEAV
Protocol: Cells were incubated with various concentration of unlabeled anti-CD39 antibody from 30 μg/ml to 5×10^−4 μg/ml, for 30 minutes at 4° C. After washes, cells were incubated with Goat anti-mouse H+L labeled secondary antibody for 30 min at 4° C.

[3] = target: T3, Human CD39-L1 (NTPDase2, ENTPD2) (Homo sapiens, UniProt Q9Y5L3); assay: ELISA titration on CD39-L1; format: binding
T3 sequence (Q9Y5L3 1-472 isoform Q9Y5L3-2): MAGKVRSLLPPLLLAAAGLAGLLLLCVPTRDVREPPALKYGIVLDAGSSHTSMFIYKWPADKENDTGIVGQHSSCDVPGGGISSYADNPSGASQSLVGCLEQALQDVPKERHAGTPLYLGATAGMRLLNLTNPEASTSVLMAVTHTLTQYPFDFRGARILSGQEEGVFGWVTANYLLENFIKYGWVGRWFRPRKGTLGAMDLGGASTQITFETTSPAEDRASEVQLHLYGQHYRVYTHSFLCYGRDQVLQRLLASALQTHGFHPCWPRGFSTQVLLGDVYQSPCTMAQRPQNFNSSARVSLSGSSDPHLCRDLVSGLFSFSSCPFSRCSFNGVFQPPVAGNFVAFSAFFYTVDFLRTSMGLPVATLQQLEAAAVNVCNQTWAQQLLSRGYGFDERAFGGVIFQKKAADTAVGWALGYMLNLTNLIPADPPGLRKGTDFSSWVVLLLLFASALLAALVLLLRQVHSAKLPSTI
Protocol: Wells were washed in TBS Tween 20, and further saturated 2H at RT in TBS Blocking buffer. Dose range concentration of primary antibody was incubated in TBS blocking buffer for 2h at RT. Wells were washed in TBS Tween 20. […] Optical density was measured on Enspire™ at OD=450.

B1: I-394: anti-CD39 antibody, VH SEQ ID NO: 6, VL SEQ ID NO: 7; heavy/light chains SEQ ID NOS: 52 and 53 (antibody)
heavy: EVQLQQSGPELVKPGASVKMSCKASGYTFTDYNMHWVKQSHGRTLEWIGYIVPLNGGSTFNQKFKGRATLTVNTSSRTAYMELRSLTSEDSAAYYCARGGTRFAYWGQGTLVTVSAASTKGPSVFPLAPSSKSTSGGTAALGCLVKDYFPEPVTVSWNSGALTSGVHTFPAVLQSSGLYSLSSVVTVPSSSLGTQTYICNVNHKPSNTKVDKRVEPKSCDKTHTCPPCPAPEAEGAPSVFLFPPKPKDTLMISRTPEVTCVVVDVSHEDPEVKFNWYVDGVEVHNAKTKPREEQYNSTYRVVSVLTVLHQDWLNGKEYKCKVSNKALPSSIEKTISKAKGQPREPQVYTLPPSREEMTKNQVSLTCLVKGFYPSDIAVEWESNGQPENNYKTTPPVLDSDGSFFLYSKLTVDKSRWQQGNVFSCSVMHEALHNHYTQKSLSLSPGK
light: DIVLTQSPASLAVSLGQRATISCRASESVDNFGVSFMYWFQQKPGQPPNLLIYGASNQGSGVPARFRGSGSGTDFSLNIHPMEADDTAMYFCQQTKEVPYTFGGGTKLEIKRTVAAPSVFIFPPSDEQLKSGTASVVCLLNNFYPREAKVQWKVDNALQSGNSQESVTEQDSKDSTYSLSSTLTLSKADYEKHKVYACEVTHQGLSSPVTKSFNRGEC
modifications: Chimeric homo sapiens mus musculus
For B1, the “maximum inhibition achieved, soluble CD39 protein” value [1] was 74.9%, the “inhibition of the enzymatic (ATPase) activity of soluble CD39 protein” value ([1]; 400 ng/ml soluble CD39, 20 μM ATP) was “strong inhibition; also recorded: inhibits; also recorded: highly potent” and the “inhibition of ATPase activity of soluble CD39 when antibody is spiked into negative hybridoma supernatants” value ([1]; added to hybridoma supernatant) was “did not restore”. For the same molecule, the “inhibition of ATPase activity of soluble CD39 after purification from the negative supernatant” value ([1]; purified with Protein A coated beads) was “again able to inhibit”, the “binding to cells expressing murine CD39” value [2] was “not to cells expressing murine CD39” and the “binding to CD39-L1 in ELISA” value [3] was “not to any of the human isoforms”.
